Data published in US20250290928A1, “METHOD, KIT AND DEVICE FOR DETECTING EXTRACELLULAR VESICLES” (priority 2022, published 2025).
*: point of attachment. 5FAM = O=C1OC2(c3ccc(O)cc3Oc3cc(O)ccc32)c2ccc(C(=O)*)cc21; TQ2 = quencher

What was measured:
[1] = target: T1, MMP14 in the MDA-MB-231-derived extracellular vesicles (Homo sapiens, UniProt P50281); test: Digital detection of MDA-MB-231-derived extracellular vesicles through MMP14 activity in wells (microcompartments); type: biochemical
T1 construct: in terms of intact MMP14 with a molecular weight of 70 kDa
Summary of the method: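 MDA-MB-231 extracellular-vesicle samples were mixed 1:1 with MMP14 detection solution. The reaction mix was sealed under fluorinated oil in 50 fL microwells (239,000-well array), giving digital single-well readout of MMP14 activity. Standard samples were prepared by serial dilution, and bulk MMP14 activity was also measured in 96-well format.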

[2] = target: T1, MMP14 in the MDA-MB-231-derived extracellular vesicles; test: Evaluation of MMP14 activity of MDA-MB-231-derived extracellular vesicles with 96-well plate; type: biochemical; conditions: for reaction rate per 1 μg/mL of extracellular vesicles: within 1 hour
Summary of the method: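 MMP14 activity in extracellular vesicles was measured by adding detection solution to samples and reading fluorescence kinetically every 5 min. Conditions were 37° C. for 1 h (ex 485/em 528 nm) or 2 h (ex 325/em 392 nm), or 30° C. for 2 h (ex 545/em 588 nm). Background was subtracted to give ΔRFU.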

[3] = Example 20, 37° C., 5 h, BG, EV 0 (free of extracellular vesicles, pseudopositive)
[4] = Example 20, 37° C., 5 h, ΔBG Absent, EV 0.0001 a.u.
[5] = Example 20, 37° C., 5 h, ΔBG Absent, EV 0.001 a.u.
[6] = Example 20, 37° C., 5 h, ΔBG Absent, EV 0.01 a.u.
[7] = Example 20, 37° C., 5 h, ΔBG Absent, EV 0.1 a.u.
[8] = Example 20, 37° C., 5 h, ΔBG Absent, EV 1 a.u. (x1=10 μg/mL)
[9] = Example 20, 37° C., 5 h, ΔBG Present (positives at EV 0 subtracted), EV 1 a.u.
[10] = Example 20, 37° C., 5 h, ΔBG Present, EV 0.001 a.u.
[11] = Example 20, 37° C., 5 h, ΔBG Present, EV 0.01 a.u.
[12] = Example 20, 37° C., 5 h, ΔBG Present, EV 0.1 a.u.
[13] = Example 22, buffer (2), 37° C., 1 h, EV 0 (free of extracellular vesicles)
[14] = Example 22, buffer (2), 37° C., 1 h, EV 0.111 a.u.
[15] = Example 22, buffer (2), 37° C., 1 h, EV 0.333 a.u.
[16] = Example 22, buffer (2), 37° C., 1 h, EV 1 a.u. (x1=10 μg/mL)
[17] = Example 22, buffer (2), 37° C., 2 h, EV 0 (free of extracellular vesicles)
[18] = Example 22, buffer (2), 37° C., 2 h, EV 0.111 a.u.
[19] = Example 22, buffer (2), 37° C., 2 h, EV 0.333 a.u.
[20] = Example 22, buffer (2), 37° C., 2 h, EV 1 a.u. (x1=10 μg/mL)
[21] = Example 9, EV 4 μg/mL, buffer (3), 37° C., Lineweaver-Burk plots

[5-FAM]GRIGFLRTAK(TQ2)[OH] (5FAM-GRIGFLRTAK(TQ2)-OH) [Custom #1]
Expected value λ [1, 3]: 0.000553
Number of positives [1, 3]: 32
Positive ratio [1, 3]: 0.000553
Expected value λ [1, 4]: 0.000535
Number of positives [1, 4]: 31
Positive ratio [1, 4]: 0.000534
Expected value λ [1, 5]: 0.00285
Number of positives [1, 5]: 165
Positive ratio [1, 5]: 0.00285
Expected value λ [1, 6]: 0.0115
Number of positives [1, 6]: 661
Positive ratio [1, 6]: 0.0114
Expected value λ [1, 7]: 0.137
Number of positives [1, 7]: 7,404
Positive ratio [1, 7]: 0.128
Expected value λ [1, 8]: 1.16
Number of positives [1, 8]: 39,601
Positive ratio [1, 8]: 0.686
Expected value λ [1, 9]: 1.16
Number of positives [1, 9]: 39,569
Positive ratio [1, 9]: 0.685
Number of positives ([1]; Example 20, 37° C., 5 h, ΔBG Present, EV 0.0001 a.u.): −1
Expected value λ [1, 10]: 0.0023
Number of positives [1, 10]: 133
Positive ratio [1, 10]: 0.0023
Expected value λ [1, 11]: 0.0109
Number of positives [1, 11]: 629
Positive ratio [1, 11]: 0.0109
Expected value λ [1, 12]: 0.136
Number of positives [1, 12]: 7,372
Positive ratio [1, 12]: 0.128
λ at x1 in an approximation with BG correction ([1]; Example 20, 5 h): 1.07
λ at x1 in an approximation without BG correction ([1]; Example 20, 5 h): 1.03
Extracellular vesicle concentration ([1]; Example 20, with BG correction): 2.1e+10 mL⁻¹
extracellular vesicles in which MMP14 activity can be detected, contained in 1 μL of the extracellular vesicles (50 μg of protein in 50 μL of PBS) ([1]; Example 20, with BG correction): 2.1×10^9
Extracellular vesicle concentration ([1]; Example 20, without BG correction): 2.1×10^9 /μg of protein
Extracellular vesicle concentration ([1]; Example 20, without BG correction, reaction solution 10 μg of protein/mL, 50 fL): 2.1e+10 mL⁻¹
expected value λ at x1 (power approximation) ([1]; Example 22, after 1 hour): 0.661
expected value λ at x1 (power approximation) ([1]; Example 22, after 2 hours): 0.7145
Expected value λ [1, 13]: 0.000725
Number of positives [1, 13]: 21
Positive ratio [1, 13]: 0.000725
Expected value λ [1, 14]: 0.0784
Number of positives [1, 14]: 2,186
Positive ratio [1, 14]: 0.0754
Expected value λ [1, 15]: 0.237
Number of positives [1, 15]: 6,117
Positive ratio [1, 15]: 0.211
Expected value λ [1, 16]: 0.65
Number of positives [1, 16]: 13,855
Positive ratio [1, 16]: 0.478
Expected value λ [1, 17]: 0.000794
Number of positives [1, 17]: 23
Positive ratio [1, 17]: 0.000794
Expected value λ [1, 18]: 0.0822
Number of positives [1, 18]: 2,287
Positive ratio [1, 18]: 0.0789
Expected value λ [1, 19]: 0.238
Number of positives [1, 19]: 6,143
Positive ratio [1, 19]: 0.212
Expected value λ [1, 20]: 0.719
Number of positives [1, 20]: 14,860
Positive ratio [1, 20]: 0.513
extracellular vesicle concentration at which MMP14 activity was able to be detected in the microcompartments ([1]; Simoa Discs, buffer (4), reporter 5 μM, 37° C.): ≥ 10 ng/mL
increase in fluorescence intensity (temporal change) ([2]; Example 4, EV 5 μg/mL, reporter 5 μM, 37° C., Assay buffer (Component D)): more significant than that from SensoLyte 520 MMP-14
reaction rate per 1 μg/mL of extracellular vesicles ([2]; Example 5, Assay buffer (Component D) of SensoLyte 520 MMP-14 Assay Kit, reporter 5 μM, 37° C.): 101.5 ΔRFU/min
reaction rate per 1 μg/mL of extracellular vesicles ([2]; Example 8, buffer (2), reporter 5 μM, 37° C.): 198 ΔRFU/min
Km [2, 21]: 0.443 µM
Vmax [2, 21]: 1,278.77 ΔRFU/min
cleaved more easily than Custom #2 ([2]; Example 9 reaction conditions): about 2.5 times
fluorescence intensity at the same extracellular vesicle concentration ([2]; Example 10, buffer (3), reporter 5 μM, 37° C.): higher than the fluorescence intensity from Custom #2
extracellular vesicle concentration at which MMP14 activity was able to be detected with a 96-well plate ([2]; buffer (4), reporter 5 μM, 37° C.): ≥ 1 µg/mL
